Results published in patent US20220112292A1 (ALETA BIOTHERAPEUTICS, published 2022).

T1: CLL-1 on U937 cells (human, UniProt Q5QGZ9 1-265)
T1 construct: whole, on cells; also called CLEC12A; Clec12A
T1 sequence: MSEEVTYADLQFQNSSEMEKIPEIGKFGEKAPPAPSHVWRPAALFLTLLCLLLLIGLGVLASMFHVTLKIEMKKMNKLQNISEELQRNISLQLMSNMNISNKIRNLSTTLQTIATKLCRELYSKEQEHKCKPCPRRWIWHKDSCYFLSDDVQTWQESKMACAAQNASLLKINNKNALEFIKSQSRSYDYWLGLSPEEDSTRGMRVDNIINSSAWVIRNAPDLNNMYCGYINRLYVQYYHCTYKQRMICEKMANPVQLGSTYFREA

T2: Clec12A (ABclonal, RP01018) (human, UniProt Q5QGZ9-1 75-275, limits assumed)
T2 construct: Bought recombinant protein; also called ABclonal Clec12A; Clec12A from AbClonal
T2 sequence: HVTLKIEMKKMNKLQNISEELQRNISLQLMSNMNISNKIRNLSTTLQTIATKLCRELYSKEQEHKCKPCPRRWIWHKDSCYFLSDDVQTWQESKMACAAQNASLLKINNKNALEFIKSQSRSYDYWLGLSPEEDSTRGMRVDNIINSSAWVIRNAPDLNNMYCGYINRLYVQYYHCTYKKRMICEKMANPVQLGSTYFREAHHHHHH

T3: Clec12A-His (Sino Biological, 11896-H07H) (human, UniProt Q5QGZ9 65-265)
T3 construct: Bought soluble protein; also called soluble CLEC12a-His; Sino Biological Clec12A
T3 chain: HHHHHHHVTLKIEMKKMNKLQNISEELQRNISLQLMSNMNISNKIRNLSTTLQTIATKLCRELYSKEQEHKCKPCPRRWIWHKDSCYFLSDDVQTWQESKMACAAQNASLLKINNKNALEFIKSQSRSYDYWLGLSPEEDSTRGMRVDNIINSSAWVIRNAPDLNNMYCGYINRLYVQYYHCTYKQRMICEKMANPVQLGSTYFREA

B1: VHH clone 2H3 (VHH)
VHH: QVQLQESGGGLVQAGGSLRLSCVASGSIRSINVMGWYRQAPGKQRELVAACASDGNTYYADSVKGRFTISRDNAEKTVYLQMNNLKPDDTAVYYCDANSRGNYYSGQGTQVTVSS
notes: Includes myc and His tags; also called 2H3 VHH-Myc-His; VHH 2H3
B2: VHH clone 2C2 (VHH)
VHH: QVQLQQSGGGLVQAGGSLTLSCAATGRTIDNGAMAWFRQAPGKQRELVAAINWSGGATFYTDSVKYRFTISRDNVRHTLDLQMTSLKPEDTTIYFCASRRGVDLRRNSYEYDYWGRGTLVTVSS
notes: Includes myc and His tags

Experiments:
CLL-1 on U937 cells [1] = biological target: T1, CLL-1 on U937 cells; experiment: flow cytometry on U937 cells, VHH in 3-fold dilutions, detected with a-His-PE; percent of cells positive
Experimental: (§1) U937 cell binding by VHH clones was assessed using varying doses to determine EC50s. Briefly, the method included: VHH clones (3 ug/ml as starting conc./test, with 3× serial dilutions) in FACS buffer were added to Fc blocked U937 or 293T-CLL1 cells (2.5×10\hat{ }5), the mixtures were incubated for 30 min at 4° C., then washed twice with FACS buffer by spinning at 500G for 2 min; anti-His-PE was added to cells, the mixture was incubated for 30 min at 4° C. and washed twice with FACS buffer by spinning at 500G for 2 min; 1% PFA (Paraformaldehyde) in PBS was added to cell pellet to fix the cells, followed by FACS analysis. VHH clones tested: 1B5: stock=1.6 mg/ml; 1H1: stock=1.9 mg/ml; 1G6: stock=1.1 mg/ml; 2F3: stock=1.45 mg/ml; 2F5: stock=0.5 mg/ml; 2H3: stock=2 mg/ml.

[2] = biological target: T2, Clec12A (ABclonal, RP01018); experiment: ELISA: coated with clec12a, then 2H3, anti-myc, HRP-anti-mIgG; OD405
Experimental: (§2) The ability of VHH clones to recognize commercially available recombinant Clec12a proteins was tested by ELISA. […] The plate was blocked with 200 μl/well 0.3% non-fat milk in Tris buffered saline (TBS) for 1 hr at room temperature (RT). Then, the plates were washed 3× with wash buffer (1×TBST: 0.1 M Tris, 0.5 M NaCl, 0.05% Tween 20). Next, 100 μl of the 2H3 VHH-Myc-His (SEQ ID NO: 15, purified by ProSci), was added starting at 5 μg/ml with 3 fold dilutions, and incubated for 1 h at RT. The plate was washed 3× with wash buffer and 100 μl of 1 ug/ml anti-Myc antibody (NOVUS/Fisher, NBP2-37822) was added per well. The plate was incubated for 1 h at RT and then washed 3× with wash buffer. Following the wash step, 100 μl of a 1:2000 dilution of HRP-anti-mIgG (Jackson ImmunoResearch, 115-035-062) was added per well and incubated at RT in the dark for 1 hr. […] This experiment was repeated twice.

CLL-1 on U937 cells [3] = biological target: T1, CLL-1 on U937 cells; experiment: flow cytometry on U937 cells, VHH at 3 ug/ml, detected with a-His-PE; a-His-PE alone 1.1% and 5,576.5, unstained 0.6% and 5,793.5
Experimental: U937 cell binding by VHH clones was assessed. Briefly, the method included: U937 cells (2.5×10\hat{ }5) were Fc blocked (human Fc block, BD Cat. #BDB564220) for 10 min at room temperature, then washed once with FACS buffer (PBS+1% BSA+0.1% Sodium Azide) by spinning at 500G for 2 min; VHH clones (3 μg/ml as final conc) in FACS buffer were added to the cell pellets and incubated for 30 min at 4° C., then washed twice with FACS buffer by spinning at 500G for 2 min; anti-His-PE (R&D Systems, Cat. #IC050P) was added to cells; the mixture was incubated for 30 min at 4° C. and washed twice with FACS buffer by spinning at 500G for 2 min; 1% PFA (Paraformaldehyde) in PBS was added to cell pellet to fix the cells, followed by FACS analysis. VHH clones tested: 1B5: stock=1.6 mg/ml; 1H1: stock=1.9 mg/ml; 1G6: stock=1.1 mg/ml; 2F3: stock=1.45 mg/ml; 2F5: stock=0.5 mg/ml; 2H3: stock=2 mg/ml. As shown in FIGS. 2A-2C, binding of clones 1H1, 1G6, 2F5 and 2H3 to U937 cells was detected with anti-His-PE; very little binding of clones 1B5 and 2F3 to U937 cells could be detected by anti-His-PE.

[4] = biological target: T3, Clec12A-His (Sino Biological, …); experiment: ELISA, lower graph (second experiment): coated with clec12a, then 2H3, anti-myc, HRP-anti-mIgG; OD405
Experimental: as §2

CLL-1 on U937 cells [5] = biological target: T1, CLL-1 on U937 cells; experiment: flow cytometry on U937 cells, % binding against ng/ml, detected with a-His-PE; EC50 of the fitted curve
Experimental: as §1

[6] = biological target: T3, Clec12A-His (Sino Biological, …); experiment: ELISA, upper graph (first experiment): coated with clec12a, then 2H3, anti-myc, HRP-anti-mIgG; OD405
Experimental: as §2

CLL-1 on U937 cells [7] = biological target: T1, CLL-1 on U937 cells; experiment: flow cytometry on U937 cells, 3x serial dilutions from 3 ug/ml, anti-His-PE
Experimental: as §1

CLL-1 on U937 cells [8] = biological target: T1, CLL-1 on U937 cells; experiment: flow cytometry on U937 cells, clone lysate, anti-cMyc-PE (Table 3 summary)
[9] = biological target: T3, Clec12A-His (Sino Biological, …); experiment: competition ELISA on coated CLEC12a-His, biotinylated VHH against unlabelled VHH
Experimental: ELISAs were used to determine if the VHH clones recognized distinct or similar epitopes. […] The plate was blocked with 0.3% nonfat milk in TBS (200 ul/well) for 1 hr at RT. The plates were washed 3× with 1×TBST (0.1 M Tris, 0.5 M NaCl and 0.05% Tween-20). The test anti-CLEC12a VHHs were added at 10 ug/ml horizontally across the plate, 100 ul per well and incubated for 1 h. Without washing, the test anti-CLEC12a biotinylated VHHs were added at 0.2 ug/ml vertically down the plate, 100 ul per well and incubate for 1 h. After being washed 3× with 1×TBST, HRP-conjugated streptavidin (Pierce #21130) at 1:2000 (100 ul/well) was added, followed by incubation at RT in the dark for 1 hr. For detection, 1-Step Ultra TMB-ELISA reagent (Thermo Fisher #34028) was added at 100 ul per well and read at 450 nm. […] The 1H1 VHH was distinct from these, and 2C2 was intermediate. Results are depicted in FIGS. 7A-7D.

Binder | % binding at 1.4 ng/ml (CLL-1 on U937 cells [1]) | % binding at 4.1 ng/ml (CLL-1 on U937 cells [1]) | % binding at 12.3 ng/ml (CLL-1 on U937 cells [1]) | % binding at 37.0 ng/ml (CLL-1 on U937 cells [1]) | % binding at 111.1 ng/ml (CLL-1 on U937 cells [1]) | % binding at 333.3 ng/ml (CLL-1 on U937 cells [1]) | % binding at 1000 ng/ml (CLL-1 on U937 cells [1]) | % binding at 3000 ng/ml (CLL-1 on U937 cells [1]) | binding result [2] | % of This Plot (R3 PE+) (CLL-1 on U937 cells [3]) | Mean FL2-A (R3 gate) (CLL-1 on U937 cells [3]) | EC50 [4] | EC50 (CLL-1 on U937 cells [5]) | EC50 [6] | EC50 (CLL-1 on U937 cells [7]) | % FACS positive (CLL-1 on U937 cells [8]) | binding result [9]
B1 | 6.2% | 33.5% | 70.5% | 89% | 89.4% | 89.9% | 90.3% | 88.7% | no binding (tested: about 5000 ng/ml) | 93.8% | 8130 | 0.0625 mg/L | 0.00547 mg/L | 0.0661 mg/L | 0.35 nM | 94.3% | 
B2 |  |  |  |  |  |  |  |  |  |  |  |  |  |  |  | 77.2% | binds
